In the Immune Epitope Database (IEDB):

Tests used:
Test in all cases: IEDB peptide-MHC binding, purified MHC/competitive/radioactivity; ≥ and ≤ were set here for values at or beyond the usual limits of such assays
Details in all cases: source organism: Bordetella pertussis
HLA-B*44:03 = target: HLA-B*44:03
HLA-B*53:01 = target: HLA-B*53:01
HLA-B*57:01 = target: HLA-B*57:01
HLA-B*07:02 = target: HLA-B*07:02
HLA-B*35:01 = target: HLA-B*35:01
HLA-A*02:01 = target: HLA-A*02:01

In the case of MEVMLRAVF, the IC50 (HLA-B*44:03) is reported as 0.0115 µM.
In the case of FIYRETFCI, the IC50 (HLA-B*53:01) is reported as 6.63 µM.
For VGAGGYEAG, the IC50 (HLA-B*53:01) was 69.9 µM.
In the case of VTSVAMKPY, the IC50 (HLA-B*57:01) is reported as 9.09 µM.
With QQLKQADRD the IC50 (HLA-B*07:02) was 69.6 µM.
With TVVQRNKHW the IC50 (HLA-B*53:01) was 69.9 µM and the IC50 (HLA-B*57:01) was at least 70.4 µM.
YAEHGEVSI was tested, and the IC50 (HLA-B*53:01) was 11.4 µM.
LAARGDGAL showed an IC50 (HLA-B*07:02) of 6.34 µM and an IC50 (HLA-B*35:01) of 69.9 µM.
Work on AEGGATLGA yielded an IC50 (HLA-B*44:03) of 12 µM.
ASSPDAHVP showed an IC50 (HLA-B*53:01) of 52.3 µM.
HLSPALADV gave an IC50 (HLA-A*02:01) of 0.444 µM.
LSAALGADW showed an IC50 (HLA-B*44:03) of 1.17 µM and an IC50 (HLA-B*53:01) of 1.69 µM.
With NNETMSGRQ the IC50 (HLA-B*57:01) was at least 70.4 µM.
Work on STYELLDYL yielded an IC50 (HLA-A*02:01) of 8.01 µM.
VSGGSLSAP showed an IC50 (HLA-B*53:01) of 54.5 µM.
For EKRLDIDDA, the IC50 (HLA-B*57:01) was at least 70.4 µM.
Work on YAIDGTAAG yielded an IC50 (HLA-B*35:01) of 2.33 µM.
